What was measured:
[1] = molecular target: recombinant KpACE (Klebsiella pneumoniae Acetylated CPS Esterase) (Klebsiella pneumoniae ATCC43816); assay: SEC; Superdex 200; rKpACE peak at 14.38 mL (75.6 kDa); predicted monomer 43.1 kDa
[2] = system: T1, rKpACE (KpACE, Klebsiella pneumoniae Acetylated CPS Esterase); assay: acetylesterase assay, Michaelis-Menten fit; type: biochemical; conditions: pH 7.4
T1 construct: signal peptide (1-21) removed; N-terminal 6xHis tag; pET-28a, E. coli BL21(DE3)

recombinant KpACE (Klebsiella pneumoniae Acetylated CPS Esterase) (enzyme)
stoichiometry N [1]: 2

CC(=O)Oc1ccc2c(C)cc(=O)oc2c1 [4-MU-Ac, 4-methylumbelliferyl acetate]
Km [2]: 160 ± 30 µM
